Assay results taken from paper PMC8866397.

Assays:
[1] = tested on: HMGN2; assay: two-color EMSA; settings: value stated for HMGNs together, EMSA: 100 nM nucleosomes in 10 µl 2x TBE (45 mM Tris-borate pH 8.3, 1 mM EDTA), 0.15 mg/ml BSA, 5% Ficoll, 10 min at 4 °C, native 5% PAGE in 2x TBE …
[2] = tested on: HMGN1; assay: two-color EMSA; settings: value stated for HMGNs together, EMSA: 100 nM nucleosomes in 10 µl 2x TBE (45 mM Tris-borate pH 8.3, 1 mM EDTA), 0.15 mg/ml BSA, 5% Ficoll, 10 min at 4 °C, native 5% PAGE in 2x TBE …
[3] = low HMGN:nucleosome ratio, histone H3K27ac, scale: ratio of shifted rMNH3K27ac to rMN fluorescence
[4] = no preference over rMN, histone H3K27me3, scale: ratio of shifted rMNH3K27me3 to rMN fluorescence

| Substance | binding signal [1, 3] | binding signal [2, 3] | binding signal [1, 4] | binding signal [2, 4] |
| --- | --- | --- | --- | --- |
| rMNH3K27ac | 1.7 | 1.7 |  |  |
| rMNH3K27me3 |  |  | 1 | 1 |
